Test results: patent US20250288643A1
Residue numbers refer to the chain shown, from its start. Each block holds one binder with its values, some of them ahead of it.

Biological target: T1, mouse CD47 (mouse) (UniProt Q61735)
T1 sequence (looked up): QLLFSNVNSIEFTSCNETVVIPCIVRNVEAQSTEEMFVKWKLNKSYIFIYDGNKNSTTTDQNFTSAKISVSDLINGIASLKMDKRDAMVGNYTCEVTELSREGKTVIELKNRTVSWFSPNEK
Assay: ELISA, coated mouse CD47 ECD Fc, supernatant, anti-c-Myc HRP

B1: 4RP13-4-5C (designed binder)
hSIRPα IgV domain mutant: EEELQVIQPDKSVSVAAGESAILNCTVTSLIPVGPIQWFRGAGPARELIYNQKHQTFPRVTTVSEQTKRENRDFSISISNITPADAGTYYCVKFRKGSPDTEFKSGAGTELSVRAKPS
mCD47 binding (OD): 0.116 OD

B2: 4RP13-5-6G (designed binder)
hSIRPα IgV domain mutant: B1 hSIRPα IgV domain mutant with N24R, I31T, H54A, Q55K, T56Q, Q66S, R72M, D73I
mCD47 binding (OD): 0.149 OD

B3: 4RP13-3-10B (designed binder)
hSIRPα IgV domain mutant: B1 hSIRPα IgV domain mutant with N24H, I31Y, H54G, Q55R, T56R, Q66S, E70A, R72M
mCD47 binding (OD): 0.17 OD

B5: 2R-1-10B (designed binder)
hSIRPα IgV domain mutant: B1 hSIRPα IgV domain mutant with N24H, H54N, Q55L, T56I, Q66S, T67G, R72M
mCD47 binding (OD): 0.086 OD

B7: 2R-1-7B (designed binder)
hSIRPα IgV domain mutant: B1 hSIRPα IgV domain mutant with N24H, T26I, H54I, Q55L, Q66S, R72Y
mCD47 binding (OD): 0.087 OD

Further lines, results first:

mCD47 binding (OD): 0.152 OD
B4: 4RP13-3-7B (designed binder)
hSIRPα IgV domain mutant: B1 hSIRPα IgV domain mutant with N24T, I31Y, H54R, Q66S, E70F, R72M

mCD47 binding (OD): 0.173 OD
B6: 4RP13-3-4D (designed binder)
hSIRPα IgV domain mutant: B1 hSIRPα IgV domain mutant with N24H, I31L, H54S, Q55K, T56V, Q66S, E70R, R72M

mCD47 binding (OD): 0.082 OD
B8: 2R-1-4B (designed binder)
hSIRPα IgV domain mutant: B1 hSIRPα IgV domain mutant with N24H, I31A, H54L, Q55D, T56S, Q66S, N71S, R72M

mCD47 binding (OD): 0.113 OD
B9: 2RP-1-3E (designed binder)
hSIRPα IgV domain mutant: B1 hSIRPα IgV domain mutant with N24T, I31W, H54G, T56N, Q66S, E70F, R72M
